This is an account of results in article PMC5772552.

As usually defined, the Kd is the equilibrium constant for the complex coming apart. Low readings indicate tighter binding, high ones weaker binding.

Assay in all cases: ELISA; semi-quantitative; plate coated with 30 nM protein (GST-tagged cohesin) in 0.1 M Na2CO3 pH 9.6 at 4 °C; His6-tagged dockerin 10 pM-1 μM in TBS with 1 mM CaCl2 and 1% BSA, 1 h, room temperature; anti-6xHis and HRP secondary antibody; fit with Hill equation
Assay [1] deals with GST-Cohwt (from plasmid pGEX-Cohwt) (Clostridium thermocellum) (UniProt Q06851).
The target in assay [2] is BSA (bovine (from the name BSA)) (UniProt P02769).
Chain of UniProt P02769 (P02769 25-607): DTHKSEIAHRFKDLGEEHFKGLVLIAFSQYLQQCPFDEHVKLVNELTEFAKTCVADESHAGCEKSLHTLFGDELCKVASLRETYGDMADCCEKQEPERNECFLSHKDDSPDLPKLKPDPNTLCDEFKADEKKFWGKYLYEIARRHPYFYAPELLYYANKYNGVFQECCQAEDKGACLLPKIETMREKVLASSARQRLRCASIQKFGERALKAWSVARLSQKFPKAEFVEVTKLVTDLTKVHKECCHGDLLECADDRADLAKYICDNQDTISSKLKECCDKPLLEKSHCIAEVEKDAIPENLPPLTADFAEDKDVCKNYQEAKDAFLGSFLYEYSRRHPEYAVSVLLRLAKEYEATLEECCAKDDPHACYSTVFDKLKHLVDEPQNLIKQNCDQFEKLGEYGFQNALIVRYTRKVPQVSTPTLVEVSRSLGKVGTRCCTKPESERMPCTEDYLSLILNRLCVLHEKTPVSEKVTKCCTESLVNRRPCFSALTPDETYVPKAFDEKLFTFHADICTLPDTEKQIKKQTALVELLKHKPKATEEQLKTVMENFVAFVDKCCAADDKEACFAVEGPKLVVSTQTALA
Assay [3] addresses GST-Coh1 (from plasmid pGEX-Coh1) (Clostridium thermocellum).

Turning to “MBP-X6b-Docwt-His6 (from plasmid pMAL-Docwt) (from UniProt P51584 733-791) (domain or fragment)”, the Kd in assay [1] was 0.77 nM; in assay [2] it was greater than 1000 nM; in assay [3], greater than 500 nM.
